This note sets out measurements from US20190300618A1 (Merck Sharp & Dohme, published 2019).

Numbering of substitutions follows the chain as printed.

Holding throughout (assay): flow cytometry, CHO-K1; sub-column 1 of 2
(In flow cytometry, cells or beads pass a laser one at a time.)

In one assay the target is T1, V49A.
T1 construct: also called hCD27 V49A
T1 receptor: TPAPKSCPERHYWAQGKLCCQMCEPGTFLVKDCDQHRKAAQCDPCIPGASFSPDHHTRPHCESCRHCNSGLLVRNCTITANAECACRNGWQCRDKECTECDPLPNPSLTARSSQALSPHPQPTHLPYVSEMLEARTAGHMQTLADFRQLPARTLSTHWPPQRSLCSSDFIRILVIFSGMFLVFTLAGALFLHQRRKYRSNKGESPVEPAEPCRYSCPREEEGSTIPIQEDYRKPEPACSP

In a further assay the target is T2, R93A.
T2 construct: also called hCD27 R93A
T2 receptor: T1 receptor with A49V, R93A

A further assay addresses T3, H36A.
T3 construct: also called hCD27 H36A
T3 receptor: T1 receptor with H36A, A49V

Another assay deals with T4, Q91A.
T4 construct: also called hCD27 Q91A
T4 receptor: T1 receptor with A49V, Q91A

Another assay has as its target T5, R10A.
T5 construct: also called hCD27 R10A
T5 receptor: T1 receptor with R10A, A49V

In another assay the target is T6, K17A.
T6 construct: also called hCD27 K17A
T6 receptor: T1 receptor with K17A, A49V

A further assay deals with T7, K31A.
T7 construct: also called hCD27 K31A
T7 receptor: T1 receptor with K31A, A49V

The next assay deals with T8, P8A.
T8 construct: also called hCD27 P8A
T8 receptor: T1 receptor with P8A, A49V

In the next assay the target is T9, H60A.
T9 construct: also called hCD27 H60A
T9 receptor: T1 receptor with A49V, H60A

The target of another assay is T10, F28A.
T10 construct: also called hCD27 F28A
T10 receptor: T1 receptor with F28A, A49V

As for 1A4 (mouse IgG1) (antibody), the % of WT hCD27 binding (geo mean FITC) with V49A worked out at 144%; with R93A, 120%; in the assay with H36A, 111%; with Q91A, 146%; with R10A, 107%; in the assay with K17A, 32.4%. Further, the % of WT hCD27 binding (geo mean FITC) with K31A was found to be 194%; with P8A, 84.5%; with H60A it was 167%; with F28A, 113%.
Take 9F4 (mouse IgG2a) (antibody): the % of WT hCD27 binding (geo mean FITC) is 151% in the assay with V49A; 122% with R93A; 88.5% with H36A; 149% with Q91A; 104% with R10A; 98% with K17A. Moreover, the % of WT hCD27 binding (geo mean FITC) was determined as 207% with K31A, 68.5% with P8A, 185% in the assay with H60A and 115% in the assay with F28A.

B1: Antibody hCD27.131A (mouse parental 131A) (antibody, V domains shown)
VH: QIQLVQSGPELKKPGETVKISCKASGYTFTNYGMNWVKQAPGKGLKWMGWINTNTGEPTYAEEFKGRFAFSLETSATTAYLQINNLKNEDTATYFCAREGDAMDYWGQGTSVTVSS
VL: QIVLTQSPAIMSASPGEKVTMTCSASSSVSYMHWYQQKSGTSPKRWIYDTSKLASGVPARFSGSGSGTSYSLTISSMEAEDAATYYCQQWNSYPFTFGSGTKLEIK
notes: mouse IgG1; also called mouse hCD27.131A
As to B1, the “% of WT hCD27 binding (geo mean FITC)” value amounted to 147% with V49A; 125% with R93A; 54.1% with H36A; 148% with Q91A; 103% with R10A; 103% in the assay with K17A. The “% of WT hCD27 binding (geo mean FITC)” value with K31A was found to be 203%; with P8A, 44.9%; in the assay with H60A, 178%; with F28A it was 106%.
